# Assay results reported in the DeepSol protein solubility set.
# Experiment: soluble on expression in E. coli; label from the status in PepcDB or PDB records
row,Sequence,soluble on expression in E. coli
1,MSLENFRSNVRKPTMSLQIAVEKVRWLAAGLLELNGCDADIAQDVAEHMIEAERYGFASHGVTLLPKYLENIARGDVTANARPECLTSEGNLQRFHAHNGFGQHAGKVAVNAAIEQAKRRGFCLLTLCHAHHLGRMGHYGQMVADQGLAMLAMSNVTGRPALVAPWGGAEPRMTTNPFCFAWPFSDGRPPILVDFATSSMALNKARVMSSTGKQAAPGQLIDAQGNPSNDPGVLFSNPPGALLPFGEHKGFGLALMIEMMAGILSGGDTIAEDHQTDGSAHNHLFALIIDPDQFTDLAGEKGQFFADYLLATQPQPGGNPVIYPGMPEAANRERNAKMITIPVSFWSWVVEHYARKGIDLGLHPQESALAEGHHHHHH,soluble
2,AIAHAASFRDCKAWQSDGLPLSSSSNEACKLYDAILSQYVTWRNDETLGGIEGCITSIKAADPDFVMGHVISTGLELVGTGSSVLRDERLASAVRRTVELADTQQLTSREKNHVKAVQLFSKGSVHRNLTFMFNG,soluble
3,MGSDKIHHHHHHMSHGAGEPYFLTEMSDMAVAGCHVMAKPGGAICNIDCTYCFYLEKEALYPERNKNWRMSDETLEQFIRQHIAAQSGDRIDFAWQGGEPTMMGLPFFRRVVALCEKYGDGRKITHALQTNGILVNDEWARFFAEQHFLIGLSIDGPASLHNHYRFNRAGKGTHEQVVAAMARLKAHHVDFNTLTVVGKHNVGHAADVYEFLLAAGSRFIQFIPLVERMSTDNSSVLNLVMPGESAATLAPWTVPSWQYGEFLNQIFDIWVRRDVDRVYVQMFDVALAAWTAQQPVLCVHSETCGHAFALESNGDLYNCDHFVYPEHLLGNIHQHSIKALNNSERAIAFGEAKRETLTADCRRCDYRFVCHGGCPKHRFAVSPSGHPAHNYLCAGYKHFFQHVTPYMNVWRELLAQGYPMASIMRWLAQDARKDTGAVSRNHPCPCGSGKKYKKCCGKA,not soluble
4,MGYIQSGKSKVEIVNVSETVTSAANVSQYPVESGAPITDNMMYTGGPVTISGWILAKNGNAAEQAYNTLVAWQKDVRWIVYRGRSYFKNAVIQDISKGYDTVENGFTITITLQPIRVAKTIWEKIPQPPVAKQPSKPSNAVYVTVQPGNTYWGWWQQYGTSIQQLRDWNKWPDRFIPIGARARVK,not soluble
5,NLLIQELCQAVINHFVRYLNINLGALYVSNEVESSLHLLSGYALSKAKKEMPAIRFGDGIVGQVAQERRLLVLENIPGENFVLESGLGDIQPSHILIAPILYQERMLGVIELGSLEPFTENHKEYMSHVMDSIAIAITSAHAREKVRELLEETQR,not soluble
6,MANQCFNQAKAVLEFRLDPCHLPQTTTYFSSKTGNQMICSLSERGVFFKTDTFSSLSRLVPSYQFKGIAARTVITLSGEKAVALELLHANEESCVPLLVSRDLNNVLLDWRLWADTYSLPMLMINEDNRLVVVKDRSDLRRFFSTTLHFRKKRFLLRYRNPLGLRLMIANQVAL,not soluble
7,MASPDEDNPGILYNGRFDFSDPNGPKCAWSGSNVELNFYGTEASVTIKSGGENWFQAIVDGNPLPPFSVNATTSTVKLVSGLAEGAHHLVLWKRTEASLGEVQFLGFDFGSGKLLAAPKPLERKIEFIGDSITCAYGNEGTSKEQSFTPKNENSYMSYAAITARNLNASANMIAWSGIGLTMNYGGAPGPLIMDRYPYTLPYSGVRWDFSKYVPQVVVINLGTNDFSTSFADKTKFVTAYKNLISEVRRNYPDAHIFCCVGPMLWGTGLDLCRSYVTEVVNDCNRSGDLKVYFVEFPQQDGSTGYGEDWHPSIATHQLMAERLTAEIKNKLGWLEHHHHHH,soluble
8,MSLTTPSKKTLLFDLDGTLVDSFPGIRTSFLHTLHEKNWEIPSEERISQVPGPPMEWTFQDLGMTPEQAQDALQTYLEHYGQVGWDLSEAFPGMRDLLIRLKYEGFRLCTATSKGEFFAEKVLRKFEMFDLFEFMGAATDNGNRRSKSAVIKHVLDSVGLDEPNDILMIGDRSHDIEGSSEFGIDCVAVTWGYGSKTEWDAARYTVSTAEELERIIHDWAEGHHHHHH,soluble
9,MADNYVIWFENLRMTDVERVGGKNASLGEMISQLTEKGVRVPGGFATTAEAYRAFLAHNGLSERISAALAKLDVEDVAELARVGKEIRQWILDTPFPEQLDAEIEAAWNKMVADAGGADISVAVRSSATAEDLPDASFAGQQETFLNINGLDNVKEAMHHVFASLYNDRAISYRVHKGFEHDIVALSAGVQRMVRSDSGASGVMFTLDTESGYDQVVFVTSSYGLGENVVQGAVNPDEFYVFKPTLKAGKPAILRKTMGSKHIKMIFTDKAEAGKSVTNVDVPEEDRNRFSITDEEITELAHYALTIEKHYGRPMDIEWGRDGLDGKLYILQARPETVKSQEEGNRNLRRFAINGDKTVLCEGRAIGQKVGQGKVRLIKDASEMDSVEAGDVLVTDMTDPDWEPV,not soluble
10,MSADYSSEKFKATHLFDEILWHFRSNLSLKTNRRGLATAENSFSGKEAVDFLMIEMPRIIPNNVPERDKMQKFLEFMMDMNVISEAFPKKVKQRRPFSESRIYLFMKTLDELKHPKPRSRRSASFSGARKSAKVAQPASPAATMHRPPKARLPRRLSRSNGNIDKAGIDNSSGGVENHGFDDHKDDEIPKKQRTPKILNRSLESICTEEYTEKREVSEMKEKVYDWLPFFKSRRNHTKVNQPTRRSASLDRNHCVLEQEKAEAALRSQKVTTPPIREAPKDVVFMHPQGPLPAVPSRYQNHRTSIAGSNPALLSRGRMYESIMRRSSVVPVADSVQANNECSFWKTELLGRLEQIYDRTLPCEWASKVDGYDIQWNMIEIDHADGIVKSRCQGLQPDYPQTVIQFMDYLVRYPFVTHKKMDTGLEYNVNRIFITLVNRLEDLNAPLQFDECSLIVNLLCKIDSFAAMLDNGPARRWSKVMISSSASSIEEAGLMVDGFSRDLPACGIRASKYRRRALSPFDNRVNLEIQDEKSYEIREQWLIEAIQLVLLSLPTSRRRKLHKFVTFIQSIETNAVFDLADPSNGSSNNREAAIIGLWTGVCSKCRKQQGMLITAVLLANFQSLFAVPVEFIEQVKRLECEEKDRYSGPRYAKITRSRNDWQPPVPDKPQASPAVFKKPLREVACEKTKKGLFTRLLRK,not soluble
11,MGSDKIHHHHHHMQRDLGKNVKLFNDIKADDLSVMLSCLGVKNQQYEKRSIIIMAEDNVDHVGVVLRGAVLIVKEDFSGNRSIVDHIGQYEMFGEAFACAGIQKSPVTVVAAEKSEIMWIQFRRIFNTCSMSCVFHAKLIENMMKVLAVKNLQMNQKLEITSKRNLRDKLMAYLLIQAKEAKSFDFIIPLNRSELADYLYVDRSALSRELCKMRDEGLIEFKKNHFCMSPM,not soluble
12,MGSDKIHHHHHHMENIAQWVGIDVSKATLDVYIRPLGKAMIVANTESEISNLVKLLLSYSLNLIVLEATGGLETELVIQLQAALLPVALINPRQGRDFAKATGKLAKTDAIDAQILAHFGEAMKPQVLAIQSETARQLSELISRRRQLVEMQTAEKNRRSLTRGQALADIEAHIEYLEEHLKQLNQKIAELTQNNLQWIDKVNLLKSTPGIGQVISTTLVSDLPELGQLTAKQISRLVGVAPINHDSGQHKGKRMINGGRAHVRATLYMGAVVAMVHNPVIKAFYERLIERGKSKKLALTACVHKMLVILNAMVRDNLPWRVTENLQPIANA,not soluble
13,DAYIGVLIDDLVTKGTNEPYRLLTSRAEYRLLLRHDNADLRLTEIGHRIGLISDERYAAFEKKKAAIEAEKKRLHSVIIKPSPENQEYIRSLGGSELKDGVRGTDLMKRPEMNYETVTKLAPPEVPVPQDVAEQVEIQVKYEGYIEKSLQQVEKLKKMENKKIPDRIDYDAIKGIATEARQKLKNVRPLSVAQASRISGVNPADISILLVYLE,not soluble
14,MLAIFQKAFAHPPEELNSPASHFSGKTPKLPGETLSDFLSHHQNNAFSMNFGDSAVLAYARQETSLRQRLFCGLDGIYCMFLGRLNNLCTLNRQYGLSGKNSNEAMFVIEAYRTLRDRGPYPADQVLRGLEGSFAFVVYDTQTSSVFSALSSDGGESLYWGISGDGSVVMSDDIQIIKQGCAKSFAPFPNGCMFHSETGLKSFDHPTNMMKAMPRIDSEGVLCGASFKVDACSKINSIPRRGSEANWALANSR,soluble
15,SLNIKLKDFTMINAVSSLAPVQSLGNYKRVEKNEKVENNEAALDRVAEIKKAIENNQYKINLHETSHKMAKDLLGIS,soluble
16,MGSDKIHHHHHHMKLDINICNNIKSIRTRLGMSQQDLANIAGVTRQTISGVESGQYAPSVAITLRLAKALGCQVENLFWLEDDLPEIEAVLAKPVPTGQQLRVSLAKVGGQWIAYPLVGKEAFRMEMIPADGRAESQTHTNKVQVRLLDDLDKLQNTVVIAGCTPVISFLARATERWHPQLRVHYHFANSMAALRSLNRGEVHIAGMHLYDPQTGEHNIPFAREALDGRSAVLITLGIWEEGLVVAPGNPMEIKSLSDLVELEATIINREPGSGSRMLLERKLKEEKVSANTIKGYEHIVHSHQDVALSIAAGIADAGVSTASVAAAFGLGFIPLHQARYDLVILKEYLEEAPVQQFLSILGHRLVQSQLEVLGGYDISDIGEVVATI,not soluble
17,MEILYIKGDATAPIGSGVKVITHICNDIGGWGKGFVLALSKKWKMPEEAYRQWYKSQEEFTLGAVQFVNVENKLYVANMIGQHGIYKDSKGLPPIRYDAVRQCLKEVALFTIAHKASVHMPRIGCGLAGGKWELMEQIIKEELITKEIAVTVYDLMAGDPLEHHHHHH,soluble
18,MSAVNGLVPSTIFDRINSDMDVSEEMEEIREVLYEMIKTNFPMGVAATHLSEKYHEEFVSKGLGRELPEDWIQQVTAAEEFEAQTRGPITILFVRLSNTSSFKRPPINSVNVRVISTDREPTADELKKIKQRKENEPTEHAKTLSQQSVALKEGSTVSIVYADSPKRFFIRALADDDQYEKIGTTLAEIYAQETPPSALDSRVAIYEIVAGGAYALQDSNGTWFRVIAKQPPQSGQVMCHFVDVGVCEKFPVAAIRLLPPAVHPVMSIGSMAREVRMDVSEEESLRLNNKFVDLTFETKDDGIQVPINLTLSKFDSSDSESLPVVDLQSSDGLSITEFLKKPSGVVRLSTPTKTTSPITPASASTSSLTCLFDKPATIQPMTVAQMPMSAFPANAIFAAGPTDISLRQLSLDPMPDYMYAKLKDECALPDSQLESSPDFGGFYAAFIDDRWERVQCIRASKIDKQAYCVYLLDVGAFQYVRKEAMRRLNSTSPFKKMLMFKCKIGGIKPVAGGEVWSRESHEAVREFFEAACGEPVVVEPTQPGWSQWKQLNAPAVPTCEARLSCCGRDIGDWLIACGLALPINAPIPSPNSQSLLTFVPTPINIVGRNI,not soluble
19,MEVEYDEGFDSSSLKNNPASLQRDYPTFMESNCSQMSVRQEFLPIFPQRLDLCQISPKKSEKKSKKKKIPSPIKKTNDTKLSILSEKSEIRSEKHKNKCKSADLDAMEKNFKELLENFSKNAALSNSLRDEASSIISSSASSQKSLFKEINLAKKLSASYSKKPEKTGEKSKNCTFSDSTFRLSSQNDSDSDDTRPPSSQASLAFEVEQARNMMMSSAKIPKPLSSSTPRKERRTTGTNSDSNKILANLKIFKPKCGNFDLFTRKVPENIRLSESQLVELYSNREPRNSKSDITIRQFFDEEDDADKTIVEQVFKDYHRSLEKETPIMRNSATDTSGSLHIERNRDGRSASMSNLISNSGNRTNLTVFDGFAPGALRHSISTVQMSPTKKKFDEFRIEHQEPGILPRFVIKTSLRPIFSPPLDIDEICGKGLRKDAESNLRHFGGKTISAQIHGSKPVQRRPTVPKASKTGSDRPTTASTAKIVEKPEIPVEIPQKLEISRKIAEKTLKLDDFPVKSSNFSNISNFQPRRPPYCSATSSDGSAHSLATVTQQLMGTVKLLHPDWLDMLRRLLNNALPRDDVTLLFKYQVLAEKDHLERKFRGNLSVEAEAADAHLEHFGRISTLNRVLDRLADLTNDGGHVSRIQQIKIIHNALFKD,not soluble
